PMC6819594, “Screening antiproliferative drug for breast cancer from bisbenzylisoquinoline alkaloid tetrandrine and fangchinoline derivatives by targeting BLM helicase” (BMC Cancer, 2019)

Molecular target: BLM642-1290 helicase (UniProt P54132 642-1290)
Experiment: fluorescence anisotropy; mitomycin C (no significant effect); 20 mM Tris pH 7.9, 25 mM NaCl, 3 mM MgCl2, 0.1 mM DTT; EMSA at room temperature 45 min; FP temperature not stated
Conditions: protein: recombinant; label: 3' fluorescein (FAM) on strand 2; 3' overhang 24 nt on strand 1; 21 bp duplex

BLM642-1290 helicase, sequence (P54132 642-1290): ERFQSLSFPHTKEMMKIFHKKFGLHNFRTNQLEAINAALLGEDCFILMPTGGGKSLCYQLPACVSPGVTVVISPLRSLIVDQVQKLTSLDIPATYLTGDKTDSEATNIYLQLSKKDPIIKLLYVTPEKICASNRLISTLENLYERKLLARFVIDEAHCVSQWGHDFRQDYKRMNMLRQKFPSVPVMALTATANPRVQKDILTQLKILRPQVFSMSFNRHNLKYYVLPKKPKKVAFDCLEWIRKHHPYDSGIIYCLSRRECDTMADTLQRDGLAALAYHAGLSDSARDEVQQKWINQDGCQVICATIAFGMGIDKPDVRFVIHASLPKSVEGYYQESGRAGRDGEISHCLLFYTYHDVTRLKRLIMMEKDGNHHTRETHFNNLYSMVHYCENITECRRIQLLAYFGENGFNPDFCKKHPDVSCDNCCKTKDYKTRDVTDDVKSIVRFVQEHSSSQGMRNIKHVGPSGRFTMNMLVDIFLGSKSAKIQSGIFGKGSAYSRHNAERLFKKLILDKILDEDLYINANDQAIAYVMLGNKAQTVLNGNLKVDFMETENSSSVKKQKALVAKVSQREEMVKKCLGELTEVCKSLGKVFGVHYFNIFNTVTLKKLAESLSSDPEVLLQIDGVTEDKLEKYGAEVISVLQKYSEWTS

B1: dsDNA A1A2 (dsDNA)
DNA 1: AATCCGTCGAGCAGAGTTAGGTTAGGTTAGGTTAGTTTTTTTTTT
DNA 2: CCTAACTCTGCTCGACGGATT
- binding result: binds
